Measurements published in patent US20040091578A1 (priority 2001, published 2004).

How the values were obtained:
[1] = Redox stability of reduced BLG in air; type: physicochemical; settings: NTS-treated raw milk without buffer, stored at 4° C. in air
Method: BLG is known to contain two disulfides, both intramolecular (See, FIG. 8): one clearly accessible on the surface and located close to the C-terminus (Cys 66-Cys 160) and the other, close to the core, located between two β-sheets (Cys 106-Cys 119 or possibly Cys 106-Cys 121). Sequence analysis confirmed that the exposed disulfide (Cys 66-Cys 160) was reduced at 55° C. […] Differential reduction of BLG could also be achieved by altering pH. […] Furthermore, the BLG in this treated milk without buffer remained reduced for 2 days when stored at 4° C. in air (data not shown).
Two sulfhydryl (SH) groups can often spontaneously react to form an S—S bond in the presence of oxygen. […] For example, the reduced form of β-lactoglobulin (BLG), a major allergen of cow's milk, is fully reoxidized after 3 days in air whether reduced by either NTS or DTT. This invention provides for the stabilization of proteins, including allergenic proteins reduced by the NTS at 4° C. and by DTT at 55° C. Other physiological reductants such as lipoic acid may also be used to initially reduce the proteins. In general, the reduction reactions were conducted as described in previous examples. The proteins are stabilized in that the SH groups of these proteins and allergens are blocked and prevented from reoxidizing to form S—S bonds. […]

[2] = target: T1, pepsin (Sus scrofa, UniProt P00791); assay: Stability to pepsin in simulated gastric fluid (Example 44); type: in vitro ADME, porcine; settings: 37° C., 0.32% pepsin
T1 construct: purchased Sigma
Method: Assay for Stability to Pepsin. BLG (1 mg/ml) or milk (15 mg/ml) were mixed with simulated gastric fluid (SGF) to give 0.32% pepsin and incubated for the indicated times at 37° C. as described in Example 39 and Astwood et al., 1996, herein incorporated by reference. The digested proteins were analyzed by reducing SDS-PACE (10 to 20% gradient gel) also as described in Laemmli, 1970, herein incorporated by reference.

[3] = tested on: atopic dogs; assay: Skin tests with milk and BLG in atopic dogs (Example 39); type: in vivo; settings: dog model skin tests
Method: Newborn pups from two litters of the atopic dog colony, designated CGB and GCB, were injected subcutaneously at day 1 with 1 μg each of wheat, cows milk and beef extract (Miles, Inc., Elkhart, Ind., described in Example 33) in 0.2 ml of alum. A third litter, designated CBB, was injected with a soy extract (Miles, Inc. described in Example 33) in addition to these same allergens. Procedures for the sensitization, testing and maintenance of the pups were substantially the same as those described in Example 36.
About 3 min prior to skin testing, each dog received 4-5 ml of filtered 0.5% Evans blue dye solution (equivalent to 0.2 ml of 0.5% Evans blue dye per kg of weight) through a cephalic vein to enhance assessment of the cutaneous IgE antibodies. Serial dilutions of 100 μl of each sample were injected intradermally on the abdominal skin to establish the titer. After 15-20 min, the allergic response was determined by measuring the size of the blue wheal reaction (maximum length and width). An appropriate negative control (buffer diluted in physiological saline) was included for each animal tested. Repeated tests with thioredoxin, NTR, NADPH and pepsin alone were consistently negative.

[4] = tested on: trypsin; assay: Trypsin proteolysis of purified milk allergens; type: biochemical; settings: 10 μg NTS reduced protein, 2 μg trypsin
Method: The analysis of the reduction was done using the mBBr/SDS-PAGE techniques. Further in this study, when 10 μg of an NTS reduced purified milk allergen protein, β-lactoglobulin (Sigma Chemical Co.), was treated with 2 μg of trypsin, proteolysis was 100% as compared with only 50% for the identically trypsin treated oxidized β-lactoglobulin. […] However, 10 μg of purified α-lactalbumin reduced by the NTS was proteolyzed 80% by trypsin. Also 10 μg of α-lactalbumin reduced by 0.8 μg of thioredoxin and 0.5 mM DTT was 100% proteolyzed by 2 μg of trypsin.

[5] = target: T1, pepsin; assay: Pepsin assay in simulated gastric fluid (Example 39); type: in vitro ADME, porcine
Method: BLG, 640 μg, or milk, 1 mg protein (i.e., about 30 μl), was incubated with or without the thioredoxin system (NTS) at either 4° C. […] The BLG, 320 μg, or milk, 500 μg protein, was then treated in 200 μl of simulated gastric fluid (SGF) as described by Astwood, J. D. et al. (1996), “Stability of food allergens to digestion in vitro”, Nature Biotechnol. 14:1269-1273. SGF consists of 0.32% pepsin (w/v) and 30 mM NaCl adjusted at pH 1.2 with HCl (Board of Trustees (ed.) 1995, Simulated Gastric Fluid, TS., pp. 2053 in the United States Pharmacopeia 23, The National Formulary 18. United States Pharmacopeial Convention, Inc. Rockville, Md.). The reaction mixture was incubated at 37° C. and stopped by adding 0.375-fold volume of 160 mM Na2CO3 (ca. pH 7) after 0, 0.25, 1, 2, 4, 8, 15, 30 and 60 min incubation. The protein mixture was then subjected to SDS-PAGE (15% gels) and stained for protein with Coomassie blue as described below. As indicated, the allergenicity of the digested samples was determined by skin test analysis.

[6] = target: castor seed 2S protein (Ricinus communis, UniProt P01089); type: biochemical; settings: 20 min at 25° C.
[7] = tested on: wheat protease preparation; assay: Susceptibility to proteolysis by a plant protease preparation, SDS-PAGE densitometry; type: biochemical
Method: The endosperm (10-15 g fresh weight) isolated from 5-day germinated wheat seeds by excising the roots and shoots was extracted for 30 minutes at 4° C. with 5 volumes of 200 mM sodium acetate, pH 4.6, containing 10 mM β-mercaptoenthanol. The homogenate was centrifuged for 20 minutes at 48,000 g, 4° C. The pellet was discarded and the supernatant fluid was fractionated with 30-70% ammonium sulfate. This fraction, which represented the protease preparation, was resuspended in a minimum volume of 20 mM sodium acetate, pH 4.6, containing 10 mM β-mercaptoenthanol, and dialyzed against this buffer overnight at 4° C.
Unless indicated, the reduction of the trypsin inhibitors (0.4 mg/ml) was carried out in 0.1 ml of 20 mM sodium phosphate buffer, pH 7.9 containing 10 mM EDTA at 30° C. for 2 hours. The concentrations of thioredoxin, NTR, and NADPH were 0.024 mg/ml, 0.02 mg/ml, and 0.25 mM, respectively. […] Following reduction, aliquots of the inhibitor mixture were withdrawn either for determination of trypsin inhibitory activity or proteolytic susceptibility. In the subtilisin tests, the inhibitor mixture (50 μl) was directly mixed with subtilisin and incubated at room temperature for 1 hour. With the wheat protease preparation, the pH of the inhibitor mixture (50 μl) was first adjusted to 4.7 by mixing with 35 μl of 200 mM sodium acetate, pH 4.6; 10 μl of the wheat protease preparation was then added and incubation was continued for 2 hours at 37° C. To stop digestion with subtilisin, 2 μl of 100 mM phenylmethylsulfonyl fluoride (PMSF) and 10 μl of 10% SDS were added to the digestion mixture. With the plant protease preparation, digestion was stopped by adding an equal volume of SDS sample buffer [0.125 M Tris-HCl, pH 6.8, 4% (w/v) SDS, 20% (v/v) glycerol, 10% (v/v) β-mercaptoethanol, and 0.02% (w/v) bromophenol blue]. Proteolytic products were analyzed by electrophoresis with 12% or 16% SDS polyacrylamide slab gels (Laemmli, 1970). The dried slab gels were scanned with a laser densitometer (Pharmacia-LKB UltraScan XL) and the peak area of the KTI or BBTI protein band was obtained by integration with a Pharmacia GelScan XL software program.
To test whether the reduced forms of KTI and BBTI show decreased stability to proteases other than trypsin, both the reduced and oxidized forms of KTI and BBTI were incubated with a wheat protease preparation or with subtilisin and the proteolytic products were analyzed by SDS-PAGE. The extent of proteolysis was determined by measuring the abundance of intact protein on SDS gels by laser densitometer. When tested with a protease preparation from 5-day germinated wheat seeds, the oxidized form of the Kunitz inhibitor was almost completely resistant to digestion whereas the thioredoxin-reduced form was susceptible to protease. […] The nature of the proteolytic reaction was not investigated, but it is noted that peptide products were not detected on SDS gels.

[8] = tested on: trypsin; assay: Trypsin inhibition assay; type: biochemical
Method: Unless indicated, the reduction of the trypsin inhibitors (0.4 mg/ml) was carried out in 0.1 ml of 20 mM sodium phosphate buffer, pH 7.9 containing 10 mM EDTA at 30° C. for 2 hours. The concentrations of thioredoxin, NTR, and NADPH were 0.024 mg/ml, 0.02 mg/ml, and 0.25 mM, respectively. […] Following reduction, aliquots of the inhibitor mixture were withdrawn either for determination of trypsin inhibitory activity or proteolytic susceptibility. In the subtilisin tests, the inhibitor mixture (50 μl) was directly mixed with subtilisin and incubated at room temperature for 1 hour. […] Proteolytic products were analyzed by electrophoresis with 12% or 16% SDS polyacrylamide slab gels (Laemmli, 1970). […]
Thioredoxin and NTR were assayed as previously described by Florencio et al. (1988). Trypsin activity was measured in 50 mM Tris-HCl, pH 7.9, by following the increase in absorbance at 253 nm with N-benzoyl-L-arginine ethyl ester as substrate (Mundy et al., 1984) or by the release of azo dye into the trichloroacetic acid (TCA)-soluble fraction from azocasein substrate (see below). For trypsin inhibition assays, trypsin (5 to 10 μg) was preincubated with appropriate amounts of KTI or BBTI for 5 minutes at room temperature in 50 mM Tris-HCl, pH 7.9 and proteolytic activity was then determined. […]

[9] = tested on: trypsin; settings: soy flour, 30 min at 120° C. (Friedman et al., 1991); cited from earlier work
[10] = target: T2, glutaredoxin (Escherichia coli, UniProt P68688); assay: Reduction by glutaredoxin, mBBr/SDS-PAGE with densitometric scanning; type: biochemical; settings: E. coli glutaredoxin, glutathione reductase, NADPH
T2 sequence (P68688 1-85): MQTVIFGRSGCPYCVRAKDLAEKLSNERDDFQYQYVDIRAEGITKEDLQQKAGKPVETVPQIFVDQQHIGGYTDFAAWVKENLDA
Method: Direct reduction of the proteins under study was determined by a modification of the method of Crawford et al. (Crawford, N. A. et al. (1989), Arch. Biochem. Biophys. 271:223-239). The reaction was carried out in 100 mM potassium phosphate buffer, pH 7.1, containing 10 mM EDTA and 16% glycerol in a final volume of 0.1 ml. As indicated, 0.7 μg (0.1 μM) NTR and 1 μg (0.8 μM) thioredoxin (both routinely from E. coli were added to 70 μl of the buffer solution containing 1 mM NADPH and 10 μg (2 to 17 μM) of target protein. When thioredoxin was reduced by dithiothreitol (DTT, 0.5 mM), NADPH and NTR were omitted. Assays with reduced glutathione were performed similarly, but at a final concentration of 1 mM. After incubation for 20 min, 100 nmoles of mBBr were added and the reaction was continued for another 15 min. To stop the reaction and derivatize excess mBBr, 10 μl of 10% SDS and 10 μl of 100 mM β-mercaptoethanol were added and the samples were then applied to the gels. […]
This ability was tested, using glutaredoxin from E. coli and the seed proteins currently under study. Reduction activity was monitored by the mBBr/SDS polyacrylamide gel electrophoresis procedure coupled with densitometric scanning.

T1 sequence (P00791 60-385): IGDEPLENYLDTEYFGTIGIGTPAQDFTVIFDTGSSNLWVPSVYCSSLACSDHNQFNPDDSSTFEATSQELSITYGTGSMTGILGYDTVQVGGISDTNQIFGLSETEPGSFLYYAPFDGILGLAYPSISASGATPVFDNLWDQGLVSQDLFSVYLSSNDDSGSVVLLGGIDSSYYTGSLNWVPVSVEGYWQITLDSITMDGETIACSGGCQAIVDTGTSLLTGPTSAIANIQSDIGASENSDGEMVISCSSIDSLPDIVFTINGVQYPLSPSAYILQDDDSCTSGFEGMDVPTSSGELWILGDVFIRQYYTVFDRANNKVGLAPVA
Sequence of castor seed 2S protein (P01089 194-258 limits assumed): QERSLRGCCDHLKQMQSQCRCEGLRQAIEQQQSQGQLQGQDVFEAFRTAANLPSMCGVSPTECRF
Sequence of castor seed 2S protein (P01089 157-190 partner limits assumed): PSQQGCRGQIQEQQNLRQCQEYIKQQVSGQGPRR

β-lactoglobulin: bovine β-lactoglobulin, major milk allergen; untreated (oxidized) control in Tables XVIII, XXI-XXIV
time BLG remained reduced [1]: 2 days | half-life in SGF [2]: about 2 hours | share of the total wheal-inducing activity of milk [3]: 80% | proteolysis by trypsin [4]: 100% | time resisting digestion in SGF ([5]; oxidized BLG in milk): at least 60 min | time to digestion in SGF ([5]; thioredoxin-reduced BLG in milk): ≤ 60 s

O[C@H](CS)[C@H](O)CS (racemic) [DTT, dithiothreitol]
Relative Reduction (%) [6]: 67%

B1: Soybean Kunitz: Kunitz soybean trypsin inhibitor (protein, UniProt P01070 25-205, looked up)
Trypsin inhibitor A: DFVLDNEGNPLENGGTYYILSDITAFGGIRAAPTGNERCPLTVVQSRNELDKGIGTIISSPYRIRFIAEGHPLSLKFDSFAVIMLCVGIPTEWSVVEDLPEGPAVKIGENKDAMDGWFRLERVSDDEFNNYKLVFCPQQAEDDKCGDIGISIDHDDGTRRLVVSKNKPLVVQFQKLDKESL
Relative Abundance ([7]; Protease after E. coli NTS): 22.1 | Relative Abundance ([7]; Protease after NTS minus NADPH): 97.7 | Relative Abundance ([7]; Protease after NTS minus NTR): 97.9 | Relative Abundance ([7]; Protease after NTS minus thioredoxin): 90.2 | Relative Abundance ([7]; Protease, No reduction system, no protease = 100): 97.9 | degraded ([7]; all components of NTS present): about 80% | increase in trypsin activity effected by the NADP/thioredoxin system [8]: 3 fold | original trypsin inhibitor activity remaining [9]: about 20% | percentage reduction by glutaredoxin relative to E. coli thioredoxin [10]: ineffective
